In PMC9409550 (PLoS ONE, 2022):

Legend:
[1] = target: SARS-CoV-2 Omicron BA.1 RBD, yeast-displayed (SARS-CoV-2, UniProt P0DTC2); assay: flow cytometry on cells; conditions: one partner purified
[2] = target: SARS-CoV-2 Omicron BA.2 RBD, yeast-displayed (SARS-CoV-2, UniProt P0DTC2); assay: flow cytometry on cells; conditions: one partner purified

B1: CDY14HL-Fc1 (Fc fusion)
chain: QSTIEEQAKTFLDMFNHKAEDLFYQSSLAAWNYNTNITEENVQNMNNAGDKWSAFLKEQSTFAQMYPLQEIQNPTVKLQLQALQQNGSSVLSEDKSKRLNTILNTMSTIYSTGKVCNPDNPQECLLLEPGLNEIMANSLDYNERLWAWESWRSEVGKQLRPLYEEYVVLKNEMARANHYEDYGDYWRGDYEVNGVDGYDYSRGQLIEDVEHTFEEIKPLYEHLHAYVRAKLMNAYPSYISPIGCLPAHLLGDMWGRFWTNLYSLTVPFGQKPNIDVTDAMVDQAWDAQRIFKEAEKFFVSVGLPNMTQGFWEYSMLTDPGNVQKAVCLPTAWDLGKGDFRILMCTKVTMDDFLTAHHEMGHIQYDMAYAAQPFLLRNGANEGFHEAVGEIMSLSAATPKHLKSIGLLSPDFQEDNETEINFLLKQALTIVGTLPFTYMLEKWRWMVFKGEIPKDQWMKKWWEMKREIVGVVEPVPHDETYCDPASLFHVSNDYSFIRYYTRTLYQFQFQEALCQAAKHEGPLHKCDISNSTEAGQKLFNMLRLGKSEPWTLALENVVGAKNMNVRPLLNYFEPLFTWLKDQNKNSFVGWSTDWSPYAD
[1]
  Kd: 0.031 nM
[2]
  Kd: 0.024 nM
